Article PMC5165034 (Frontiers in Immunology, 2016)

biological target: influenza virus X-31 hemagglutinin (HA) (Influenza A virus X-31 (H3N2; HA of …, UniProt P03437, strain)

Row | Binder | binding result
1 | 3C8 (VHH) VHH: EVQLLESGGGLVQPGGSLRLSCAASGFTFSSYAMSWVRQAPGKGLEWVSAITGSGSSTYYADSVKGRFTISRDNSKNTLYLQMNSLRAEDTAVYYCAKDRPYGSGSYKYGMDVGGQGTTVTVSS | binds
2 | 3A5 (VHH) VHH: EVQLVESGGGLVKPGGSLRLSCAASGFIFSDYYMSWIRQAPGKGLEWISYISSSGDSIYYADSVKGRFTISRDDAKNSLSLQMNSLRAEDTAVYYCARGWFGESHYSDFWGQGTLVTVSS | binds
3 | 4A12 (VHH) VHH: EVQLVESGGGLVKPGGSLRLSCAASGFTFSDYYMSWIRQAPGKGLEWVSYISSSGNTIYYADSVKGRFTISRDNAKNSLYLQMNSLRAEDTAVYYCARDRLGMVRPLHYWGQGTLVTVSS | binds
4 | 4F5 (VHH) VHH: EVQLVESGGGLVKPGGSLRLSCAASGFTFSDYYMSWIRQAPGKGLEWVSYISSSGSTIYYADSVKGRFTISRDNAKNSLYLQMNSLRAEDTAVYYCARRRSLTVGAPTYWGQGTLVTVSS | binds
5 | 3B8 (VHH) VHH: EVQLVESGGGLVKPGGSLRLSCAASGFTFSDYYMSWIRQAPGKGLEWVSYISGSGNTIYYADSVRGRFTISRDNAKNSLYLQMNSLRAEDTALYYCARDRAGMVRGPHYWGQGTLVTVSS | binds
6 | 2F5 (VHH) VHH: EVQLVESGGDLVEPGGSLRLSCAASGFTFSDYYMSWIRQAPGKGLEWVSYISGSGNTIYYADSVKGRFTISRDNAKNSLYLQMNSLRAEDTAVYYCARDRLGMVRPLHYWGQGTLVTVSS | binds
7 | 2E6 (VHH) VHH: EVQLVESGGGLVKPGGSLRLSCAASGFTFSDYYMSWIRQAPGKGLEWVSYISGSGNTIYYADSVKGRFTISRDNAKNSLYLQMNSLRAEDTAVYYCARDRLGMVRPLHYWGQGTLVTVSS | binds
8 | 3A6 (VHH) VHH: EVQLVESGGGLVKPGGSLRLSCAASGFTFSDYYMSWIRQAPGKGLEWVSYISGSGNTIYYADSVKGRFTISRDNAKNSLYLQMNSLRAEDTAVYYCARDRLGMDRPLHYWGQGTLVTVSS | binds
9 | 4F9 (VHH) VHH: EVQLVESGGGLVKPGGSLRLSCAASGFTFSDYYMSWIRQAPGKGLEWVSYISSSGSTIYYADSVKGRFTISRDNAKNSLYLQMNSLRAEDTAVYYCARDLVGATDFDYWGQGTLVTVSS | binds
10 | 2B5 (VHH) VHH: EVQLVESGGGLVKPGGSLRLSCAASGFTFSDYYMTWIRQTPGKGLEWVSYISDDNNTIYYADSVKGRFTISRDNAKNSLYLQMNSLRAEDTAVYYCARDGYFGELPGFDYWGQGTLVTVSS | binds
11 | 1B1 (VHH) VHH: EVQLVESGGGLVKSGGSLRLSCAASGFTFSDYYMSWIRQAPGKGLEWVSYISSSGSTIYYADSVKGRFTISRDNAKNSLYLQMNSLRAEDTAVYYCARGISMARDYWGQGTLVTVSS | binds
12 | 1F1 (VHH) VHH: EVQLVESGGGLVKPGGSLRLSCAASGFTFSDYYMSWIRQAPGKGLEWVSYISSSGSTIYYADSVKGRFTISRDNAKNSLYLQMNSLRAEDTAVYYCARGVKLTEDNWGQGTLVTVSS | binds
13 | 7H12 (VHH) VHH: EVQLVESGGGLVKPGGSLRLSCAASGFTFSDYYMSWIRQAPGKGLEWVSYISSSGSTIYYADSVKGRFTISRDNAKNSLYLQMNSLRAEDTAVYYCARGISMVGDYWGQGTLVTVSS | binds
14 | 1F10 (VHH) VHH: EVQLVESGGGLVKPGGSLRLSCAASGFTFSDYYMSWIRQAPGKGLEWVSYISSSGSTIYYADSVKGRFTISRDNAKNSLYLQMSSLRAEDTAVYYCARGISLTGTDWGQGTLVTVSS | binds
15 | 1H11 (VHH) VHH: EVQLVESGGGLVKPGGSLRLSCAASGFTFSDYYMSWIRRAPGKGLEWVSYISSSGSNIYYVDSVKGRFTISRDNAKNSLYLQMNSLRAEDTAVYYCARGIAMTGDYWGQGTQVTVTS | binds
16 | 1F12 (VHH) VHH: EVQLVESGGGLVKPGGSLRLSCAASGFTFSDYYMSWIRQAPGKGLEWVSYISSSGSNIYYADSVKGRFTISRDNAKNSLYLQMNSLRAEDTAVYYCARGIAVAEDVWGQGTTVTVSS | binds

Row | Binder | binding result
17 | 1C4 (VHH) VHH: EVQLVESGGGLVKPGGSLRLSCAASGFTFSDYYMSWIRQAPGKGLEWVSYISSSGSTIYYADSVKGRFTISRDNAKNSLYLQMNSLRAEDTAVYYCARGISMAGDSWGQGTLVTVSS | binds
18 | 1C8 (VHH) VHH: EVQLVESGGGLVKPGGSLRLSCAASGFTFSDYYMSWIRQAPGKGLEWVSYISSSGSTIYYADSVKGRFTISRDNAKNSLYLQMNSLRAEDTAVYYCARGISMVGDNWGQGTLVTVSS | binds
19 | 1H4 (VHH) VHH: EVQLVESGGGLVKPGGSLRLSCAASGFTFSDYYMSWIRQAPGKGLEWVSYISSSGSTIYYADSVKGRFTISRDNAKNSLYLQMNSLRAEDTAVYYCARGIAMVEDSWGQGTLVTVSS | binds
20 | 1A7 (VHH) VHH: EVQLVESGGGLVKPGGSLRLSCAASGFTFSDYYMSWIRQAPGKGLEWVSYISSSGSTIYYADSVKGRFTISRDNAKNSLYLQMNSLRAEDTAVYYCARGISMTGDYWGQGTLVNVSS | binds
21 | 4H7 (VHH) VHH: EVQLVESGGGLVKPGGSLRLSCAASGFTFSDYYMSWIRQAPGKGLEWVSYISSSGSTIYYADSVKGRFTISRDNAKNSLYLQMNSLRAEDTAVYYCARGISVTGDSWGQGTLVTVSS | binds
22 | 4D7 (VHH) VHH: EVQLVEFGGGLVKPGGSLRLSCAASGFTFSDYYMSWIRQAPGKGLEWVSYISSSGSNIYYADSVKGRFTITRDNAKNSLYLQMNSLRAEDTAVYYCARGISMTGDYWGQGTQVTVSS | binds
23 | 1D10 (VHH) VHH: EVQLVESGGGLVKPGGSLRLSCAASGFTFSDYYMSWIRQAPGKGLEWVSYISSGGDTIYYADSVKGRFTISRDNAKNSLYLQMNSLRAEDTAVYYCARGISMTGDYWGQGTLVNVSS | binds
24 | 1C9 (VHH) VHH: EVQLVESGGGLVKPGGSLRLSCAASGFTFSDYYMSWIRQAPGKGLEWVSYISSSGSTIYYADSVKGRFTISRDNAKNSLYLQMNSLRAEDTAVYYCAKGISTTGDYWGQGALVSVSS | binds
25 | 4E8 (VHH) VHH: EVQLVESGGGLVKPGGSLRLSCAASGFTFSDYYMSWIRQAPGKGLEWVSYISSSGSTIYYADSVKGRFTISRDNAKNSLYLQMNSLRAEDTAVYYCARGISLTGDYWGQGTLVTVSS | binds
26 | 2D1 (VHH) VHH: EVQLVESGGGLVKPGGSLRLSCAASGFTFSDYYMSWIRQAPGKGLEWVSYISSSGSTIYYADSVRGRFTISRDNAKDSLYLQMNSLRAEDTAVYYCARRRSLTVGAPTYWGQGTLVTVSS | binds
27 | 2B3 (VHH) VHH: EVQLVESGGGLVKPGGSLRLSCAASGFTFSDYYMSWIRQAPGKGLEWVSYISSSGSIIYYADSVKGRFTISRDNAKDSLYLQMNSLRAEDTAVYYCARRRSLTVGAPTYWGQGTLVTVSS | binds
28 | 4D3 (VHH) VHH: EVQLVESGGGLVKPGGSLRLSCAASGFTFSDYYMSWIRQAPGKGLEWVSYISSSGSTLYYADSVRGRFTISRDNAKDSLYLQMNSLRAEDTAVYYCARRRSLTVGAPTYWGQGTLVTVSS | binds
29 | 2E2 (VHH) VHH: EVQLVESGGGLVKPGGSLRLSCEASGFTFSDYYMSWIRQAPGKGLEWVSYISSSGSTIYYADSVKGRFTISRDNAKDSLYLQMNSLRAEDTAVYYCARRRSLTVGAPTYWGQGTLVTVSS | binds
30 | 6F7 (VHH) VHH: EVQLVESGGGLVKPGGSLRLSCAASGFTFSDYYMSWIRQAPGKGLEWVSYISSSGRTIYYADSVKGRFTISRDNAKNSLYLQMNSLRAEDTAVYYCARGGIAVAGTTRHYSDYWGQGTLVTVSS | binds
31 | 1D8 (VHH) VHH: EVQLVESGGGLVKPGGSLRLSCAASGFTFSDYYMSWIRQAPGKGLEWVSYISSSGSTIYYADSVKGRFTISRDNAKNSLYLQMNSLRAEDTAVYYCARGPPFDYWGQGTLVTVSS | binds
32 | 4G9 (VHH) VHH: EVQLLESGGGLVQRGGSLRLSCAASGFTFSSYAMSWVRQAPGKGLEWVSAISGSGGSTHYADSVKGRFTISRDNSKNTLYLQMNSLRAEDTAVYYCAKKGDRGYFFDYWGQGTLVTVSS | binds
